B1: TRIM63 (parent)
chain: FRCPTCRHEVIMDRHGVYGLQRNL
B2: HESX1 (parent)
chain: SKYENYFSASERLSLKRELSWYRG

Variants of: B1
Experiment: protein stability index of a GFP-peptide fusion (GPS, HEK-293T) (PSI 1-6); higher = more stable
Details: c terminus: a fixed tail appended
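Note: lentivirally expressed fusions sorted by FACS into six bins by GFP to DsRed ratio, PSI derived from sequencing read proportions per bin multiplied by bin number.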

Question: Which protein stability index does the source give for FRCPTCRHEVIMDRHGVYGLQRNV [L24V] here?
Answer: 2.12

Question: Which protein stability index does the source give for FRCPTCRHEVIMDRHGVYGLQRNY [L24Y] here?
Answer: 2.7

Question: Which protein stability index does the source give for FRCPTCRHEVIMDRHGVYGLQRNT [L24T] here?
Answer: 2.98

Question: For FRCPTCRHEVIMDRHGVYGLQRNR [L24R], which protein stability index is on record?
Answer: 1.7

Question: For FRCPTCRHEVIMDRHGVYGLQRNW [L24W], which protein stability index is on record?
Answer: 2.4

Question: With FRCPTCRHEVIMDRHGVYGLQRNS [L24S] as the variant, how does the protein stability index read?
Answer: 2.47

Variants of: B2
Experiment: as above
Details: c terminus: a fixed tail appended

Question: For SKYENYYSASERLSLKRELSWYRG [F7Y], which protein stability index is on record?
Answer: 2.63

Question: For SKYENYWSASERLSLKRELSWYRG [F7W], which protein stability index is on record?
Answer: 1.3

Question: Which protein stability index does the source give for SKYENYTSASERLSLKRELSWYRG [F7T] here?
Answer: 3.02

Question: With SKYENYESASERLSLKRELSWYRG [F7E] as the variant, how does the protein stability index read?
Answer: 1.96

Question: With SKYENYSSASERLSLKRELSWYRG [F7S] as the variant, how does the protein stability index read?
Answer: 2.83

Question: With SKYENYMSASERLSLKRELSWYRG [F7M] as the variant, how does the protein stability index read?
Answer: 2.12

Question: For SKYENYKSASERLSLKRELSWYRG [F7K], which protein stability index is on record?
Answer: 1.77

Question: For SKYENYLSASERLSLKRELSWYRG [F7L], which protein stability index is on record?
Answer: 2.64

Question: For SKYENYISASERLSLKRELSWYRG [F7I], which protein stability index is on record?
Answer: 1.98

Question: For SKYENYGSASERLSLKRELSWYRG [F7G], which protein stability index is on record?
Answer: 1.42

Question: With SKYENYVSASERLSLKRELSWYRG [F7V] as the variant, how does the protein stability index read?
Answer: 3.05

Question: With SKYENYHSASERLSLKRELSWYRG [F7H] as the variant, how does the protein stability index read?
Answer: 2.72

Question: With SKYENYDSASERLSLKRELSWYRG [F7D] as the variant, how does the protein stability index read?
Answer: 2.39

Question: For SKYEKYFSASERLSLKRELSWYRG [N5K], which protein stability index is on record?
Answer: 1.42

Question: With SKYECYFSASERLSLKRELSWYRG [N5C] as the variant, how does the protein stability index read?
Answer: 1.51

Question: For SKYEFYFSASERLSLKRELSWYRG [N5F], which protein stability index is on record?
Answer: 1.03

Question: For SKYEDYFSASERLSLKRELSWYRG [N5D], which protein stability index is on record?
Answer: 1.71

Question: With SKYEPYFSASERLSLKRELSWYRG [N5P] as the variant, how does the protein stability index read?
Answer: 1.63

Question: Which protein stability index does the source give for SKYETYFSASERLSLKRELSWYRG [N5T] here?
Answer: 2.24

Question: With SKYEIYFSASERLSLKRELSWYRG [N5I] as the variant, how does the protein stability index read?
Answer: 2.23

Question: Which protein stability index does the source give for SKYEYYFSASERLSLKRELSWYRG [N5Y] here?
Answer: 2.24

Question: With SKYEHYFSASERLSLKRELSWYRG [N5H] as the variant, how does the protein stability index read?
Answer: 1.9

Question: With SKYEQYFSASERLSLKRELSWYRG [N5Q] as the variant, how does the protein stability index read?
Answer: 2.12

Question: For SKYEAYFSASERLSLKRELSWYRG [N5A], which protein stability index is on record?
Answer: 2.03

Question: With SKYENYFSESERLSLKRELSWYRG [A9E] as the variant, how does the protein stability index read?
Answer: 3.38

Question: With SKYENYFSMSERLSLKRELSWYRG [A9M] as the variant, how does the protein stability index read?
Answer: 2.15

Question: With SKYENYFSLSERLSLKRELSWYRG [A9L] as the variant, how does the protein stability index read?
Answer: 1.58

Question: Which protein stability index does the source give for SKYENYFSHSERLSLKRELSWYRG [A9H] here?
Answer: 1.59

Question: Which protein stability index does the source give for SKYENYFSSSERLSLKRELSWYRG [A9S] here?
Answer: 1.82

Question: Which protein stability index does the source give for SKYENYFSISERLSLKRELSWYRG [A9I] here?
Answer: 1.44

Question: For SKYENYFSPSERLSLKRELSWYRG [A9P], which protein stability index is on record?
Answer: 1.4

Question: For SKYENYFSFSERLSLKRELSWYRG [A9F], which protein stability index is on record?
Answer: 1.51

Question: Which protein stability index does the source give for SKYENYFSCSERLSLKRELSWYRG [A9C] here?
Answer: 2.45

Question: For SKYENYFSNSERLSLKRELSWYRG [A9N], which protein stability index is on record?
Answer: 2.86

Question: For SKYENYFSVSERLSLKRELSWYRG [A9V], which protein stability index is on record?
Answer: 1.41

Question: With SKYENYFSYSERLSLKRELSWYRG [A9Y] as the variant, how does the protein stability index read?
Answer: 2.08

Question: For SKYENYFSKSERLSLKRELSWYRG [A9K], which protein stability index is on record?
Answer: 2.01

Question: With SKYENYFSDSERLSLKRELSWYRG [A9D] as the variant, how does the protein stability index read?
Answer: 2.73

Question: With SKYENYFSTSERLSLKRELSWYRG [A9T] as the variant, how does the protein stability index read?
Answer: 2.18

Question: Which protein stability index does the source give for SKYENYFSQSERLSLKRELSWYRG [A9Q] here?
Answer: 2.01

Question: For SKYENYFSWSERLSLKRELSWYRG [A9W], which protein stability index is on record?
Answer: 1.52

Question: With SKYENYFSRSERLSLKRELSWYRG [A9R] as the variant, how does the protein stability index read?
Answer: 1.99

Question: With SKYENYFSAMERLSLKRELSWYRG [S10M] as the variant, how does the protein stability index read?
Answer: 1.86

Question: For SKYENYFSAAERLSLKRELSWYRG [S10A], which protein stability index is on record?
Answer: 2.07

Question: With SKYENYFSACERLSLKRELSWYRG [S10C] as the variant, how does the protein stability index read?
Answer: 2.34

Question: Which protein stability index does the source give for SKYENYFSAHERLSLKRELSWYRG [S10H] here?
Answer: 2.38

Question: For SKYENYFSAWERLSLKRELSWYRG [S10W], which protein stability index is on record?
Answer: 2.31

Question: Which protein stability index does the source give for SKYENYFSATERLSLKRELSWYRG [S10T] here?
Answer: 2.77

Question: With SKYENYFSAYERLSLKRELSWYRG [S10Y] as the variant, how does the protein stability index read?
Answer: 1.67

Question: For SKYENYFSAPERLSLKRELSWYRG [S10P], which protein stability index is on record?
Answer: 1.95

Question: With SKYENYFSAQERLSLKRELSWYRG [S10Q] as the variant, how does the protein stability index read?
Answer: 2.28

Question: With SKYENYFSAGERLSLKRELSWYRG [S10G] as the variant, how does the protein stability index read?
Answer: 1.56

Question: For SKYENYFSAEERLSLKRELSWYRG [S10E], which protein stability index is on record?
Answer: 3.04

Question: For SKYENYFSANERLSLKRELSWYRG [S10N], which protein stability index is on record?
Answer: 2.13

Question: For SKYENYFSADERLSLKRELSWYRG [S10D], which protein stability index is on record?
Answer: 2.19

Question: For SKYENYFSAKERLSLKRELSWYRG [S10K], which protein stability index is on record?
Answer: 2.72

Question: Which protein stability index does the source give for SKYENYFSAFERLSLKRELSWYRG [S10F] here?
Answer: 1.07

Question: Which protein stability index does the source give for SKYENYFSARERLSLKRELSWYRG [S10R] here?
Answer: 2.3

Question: Which protein stability index does the source give for SKYENYFMASERLSLKRELSWYRG [S8M] here?
Answer: 1.61

Question: With SKYENYFCASERLSLKRELSWYRG [S8C] as the variant, how does the protein stability index read?
Answer: 2.03

Question: Which protein stability index does the source give for SKYENYFKASERLSLKRELSWYRG [S8K] here?
Answer: 1.62

Question: With SKYENYFDASERLSLKRELSWYRG [S8D] as the variant, how does the protein stability index read?
Answer: 3.25

Question: For SKYENYFHASERLSLKRELSWYRG [S8H], which protein stability index is on record?
Answer: 2.01

Question: Which protein stability index does the source give for SKYENYFVASERLSLKRELSWYRG [S8V] here?
Answer: 1.56

Question: With SKYENYFQASERLSLKRELSWYRG [S8Q] as the variant, how does the protein stability index read?
Answer: 2.26

Question: For SKYENYFAASERLSLKRELSWYRG [S8A], which protein stability index is on record?
Answer: 1.94

Question: For SKYENYFIASERLSLKRELSWYRG [S8I], which protein stability index is on record?
Answer: 1.94

Question: Which protein stability index does the source give for SKYENYFFASERLSLKRELSWYRG [S8F] here?
Answer: 2.35

Question: For SKYENYFLASERLSLKRELSWYRG [S8L], which protein stability index is on record?
Answer: 1.55

Question: For SKYENYFNASERLSLKRELSWYRG [S8N], which protein stability index is on record?
Answer: 1.68

Question: Which protein stability index does the source give for SKYENYFRASERLSLKRELSWYRG [S8R] here?
Answer: 1.44

Question: For SKYENYFEASERLSLKRELSWYRG [S8E], which protein stability index is on record?
Answer: 1.67

Question: For SKYENYFSASECLSLKRELSWYRG [R12C], which protein stability index is on record?
Answer: 2.4

Question: With SKYENYFSASEVLSLKRELSWYRG [R12V] as the variant, how does the protein stability index read?
Answer: 1.55

Question: With SKYENYFSASENLSLKRELSWYRG [R12N] as the variant, how does the protein stability index read?
Answer: 1.79

Question: With SKYENYFSASEDLSLKRELSWYRG [R12D] as the variant, how does the protein stability index read?
Answer: 2.32

Question: With SKYENYFSASEQLSLKRELSWYRG [R12Q] as the variant, how does the protein stability index read?
Answer: 1.95

Question: With SKYENYFSASEKLSLKRELSWYRG [R12K] as the variant, how does the protein stability index read?
Answer: 1.93

Question: With SKYENYFSASESLSLKRELSWYRG [R12S] as the variant, how does the protein stability index read?
Answer: 2

Question: With SKYENYFSASEYLSLKRELSWYRG [R12Y] as the variant, how does the protein stability index read?
Answer: 2.01

Question: Which protein stability index does the source give for SKYENYFSASEHLSLKRELSWYRG [R12H] here?
Answer: 2.65

Question: Which protein stability index does the source give for SKYENYFSASETLSLKRELSWYRG [R12T] here?
Answer: 2.88

Question: With SKYENYFSASEILSLKRELSWYRG [R12I] as the variant, how does the protein stability index read?
Answer: 2.77

Question: For SKYENYFSASEELSLKRELSWYRG [R12E], which protein stability index is on record?
Answer: 2.77

Question: Which protein stability index does the source give for SKYENYFSASEGLSLKRELSWYRG [R12G] here?
Answer: 1.77

Question: Which protein stability index does the source give for SKYENYFSASEFLSLKRELSWYRG [R12F] here?
Answer: 1.55

Question: For SKYENYFSASELLSLKRELSWYRG [R12L], which protein stability index is on record?
Answer: 2.03

Question: For SKYENYFSASEMLSLKRELSWYRG [R12M], which protein stability index is on record?
Answer: 1.06

— the supplement of paper PMC10567573
